Assay results reported in patent publication US20060159697A1 (INSTITUT PASTEUR, published 2006).

Target: human CD11b/CD18 (alphaM beta2 integrin) on transfected CHO cells (human, UniProt P11215 17-1152; P05107 23-769)
Assay: FACS competition on CHO-CD11b cells, competitor CyaA-biotin

B1: CyaA 373-1706 (hemolytic moiety) (other)
chain: MGCGNSKFSPDVLETVPASPGLRRPSLGAVERQDSGYDSLDGVGSRSFSLGEVSDMAAVEAAELEMTRQVLHAGARQDDAEPGVSGASAHWGQRALQGAQAVAAAQRLVHAIALMTQFGRAGSTNTPQEAASLSAAVFGLGEASSAVAETVSGFFRGSSRWAGGFGVAGGAMALGGGIAAAVGAGMSLTDDAPAGQKAAAGAEIALQLTGGTVELASSIALALAAARGVTSGLQVAGASAGAAAGALAAALSPMEIYGLVQQSHYADQLDKLAQESSAYGYEGDALLAQLYRDKTAAEGAVAGVSAVLSTVGAAVSIAAAASVVGAPVAVVTSLLTGALNGILRGVQQPIIEKLANDYARKIDELGGPQAYFEKNLQARHEQLANSDGLRKMLADLQAGWNASSVIGVQTTEISKSALELAAITGNADNLKSVDVFVDRFVQGERVAGQPVVLDVAAGGIDIASRKGERPALTFITPLAAPGEEQRRRTKTGKSEFTTFVEIVGKQDRWRIRDGAADTTIDLAKVVSQLVDANGVLKHSIKLDVIGGDGDDVVLANASRIHYDGGAGTNTVSYAALGRQDSITVSADGERFNVRKQLNNANVYREGVATQTTAYGKRTENVQYRHVELARVGQVVEVDTLEHVQHIIGGAGNDSITGNAHDNFLAGGSGDDRLDGGAGNDTLVGGEGQNTVIGGAGDDVFLQDLGVWSNQLDGGAGVDTVKYNVHQPSEERLERMGDTGIHADLQKGTVEKWPALNLFSVDHVKNIENLHGSRLNDRIAGDDQDNELWGHDGNDTIRGRGGDDILRGGLGLDTLYGEDGNDIFLQDDETVSDDIDGGAGLDTVDYSAMIHPGRIVAPHEYGFGIEADLSREWVRKASALGVDYYDNVRNVENVIGTSMKDVLIGDAQANTLMGQGGDDTVRGGDGDDLLFGGDGNDMLYGDAGNDTLYGGLGDDTLEGGAGNDWFGQTQAREHDVLRGGDGVDTVDYSQTGAHAGIAAGRIGLGILADLGAGRVDKLGEAGSSAYDTVSGIENVVGTELADRITGDAQANVLRGAGGADVLAGGEGDDVLLGGDGDDQLSGDAGRDRLYGEAGDDWFFQDAANAGNLLDGGDGRDTVDFSGPGRGLDAGAKGVFLSLGKGFASLMDEPETSNVLRNIENAVGSARDDVLIGDAGANVLNGLAGNDVLSGGAGDDVLLGDEGSDLLSGDAGNDDLFGGQGDDTYLFGVGYGHDTIYESGGGHDTIRINAGADQLWFARQGNDLEIRILGTDDALTVHDWYRDADHRVEIIHAANQAVDQAGIEKLVEAMAQYPDPGAAAAAPPAARVPDTLMQSLAVNWR
  binding result: binds
